For this experiment, the target named is recombinant soluble canine IL-10 receptor alpha chain (R1), extra-cytoplasmic domain (canine). The experiment can be described thus: SPR; rcasIL-10R1 covalently immobilised (EDC/NHS) on a CM5 chip to 1000 RU, Biacore T100; cytokines in PBS with 0.05% Tween 20 applied for 2 min 30 s; each sample evaluated twice, mean ± SD of RU. (SPR reads the build-up and loss of mass on a sensor chip optically.)

For the substance “recombinant canine IL-10 (from UniProt P48411 20-181) (ligand)”, the RU at 31.2 ng/mL worked out at 211 RU, the RU at 125 ng/mL (plateau) was 1720 RU and the binding equilibrium constant (EC80) came out at 51.4 nM.

For the origin of these results see article PMC7815104.
